The source of these data is patent publication US20240343799A1 (Innovent, published 2024).

In test [1] the target is T1, CD79b on the surface of B-cell non-Hodgkin's lymphoma cells (human, UniProt P40259 29-229).
T1 construct: whole, on cells; Endogenous CD79b of the cell lines; on cells it stands in the B cell receptor complex with CD79a; also called CD79b on Ramos cells; CD79b on BJAB cells
T1 sequence (looked up): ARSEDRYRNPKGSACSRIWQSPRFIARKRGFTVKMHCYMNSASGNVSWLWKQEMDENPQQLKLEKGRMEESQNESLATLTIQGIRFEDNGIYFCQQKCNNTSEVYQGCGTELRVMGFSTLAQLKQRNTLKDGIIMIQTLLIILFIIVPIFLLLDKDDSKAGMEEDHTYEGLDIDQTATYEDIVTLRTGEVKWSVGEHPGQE
As to the kind of experiment: flow cytometry on BJAB cells, goat anti-human IgG PE. On the procedure: (§1) The binding ability of the CD79b/CD3 bispecific antibodies for CD79b-positive B-cell non-Hodgkin's lymphoma cell lines was detected by flow cytometry.
(§2) BJAB (AddexBio, USA, Cat #C0003016) and WSU-DLCL2 (Nanjing Kebai Biotechnology Co., Ltd., Cat #CBP60273) were cultured and passaged according to the conventional procedures. Cells were counted after centrifugation and resuspension, adjusted to a density of 4×10⁶ cells/mL, poured into a loading tank, and seeded to a 96-well plate at 50 μL/well using a multichannel pipettor. 50 μL of the antibody sample diluted in gradient was added to the 50 μL of cells in each well, and the mixture was then incubated in an incubator at 5% CO₂ and 37° C. for 30 min. The mixture was centrifuged at 400 g for 5 min, then 200 μL of PBS was added, and the resulting mixture was centrifuged at 400 g for 5 min. This procedure was repeated 3 times. Goat anti-human IgG PE (1:200) was added, and the mixture was incubated for 30 min in the dark at room temperature. The mixture was washed with 200 μL of PBS twice, centrifuged, and then resuspended in 100 μL of PBS, and the values were read using a flow cytometer. The values were fitted to obtain a curve and EC₅₀ values were calculated.
A general note: A flow cytometer gives signals particle by particle.

Test [2] deals with T2, monkey CD3E & CD3G-biotin (Sino biological) (cynomolgus monkey, UniProt Q95LI5 22-117; Q95LI7 23-113, limits assumed).
T2 construct: also called Cyno CD3E&G; monkey CD3E&G
T2 sequence (looked up) 1: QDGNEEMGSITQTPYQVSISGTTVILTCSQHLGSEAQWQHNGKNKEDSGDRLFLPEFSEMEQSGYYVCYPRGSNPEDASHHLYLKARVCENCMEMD
T2 sequence (looked up) 2: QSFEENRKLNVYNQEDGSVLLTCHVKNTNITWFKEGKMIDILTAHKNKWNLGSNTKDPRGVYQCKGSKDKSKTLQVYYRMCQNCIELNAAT
The experiment in a line: SPR (Biacore T200), biotinylated monkey CD3E&CD3G on streptavidin chip, antibody injected. The protocol:
(§3) The binding kinetics of exemplary anti-CD79b/CD3 antibodies of the present invention for human CD79b, human CD3, and cynomolgus monkey CD3 were determined using surface plasmon resonance (Biacore T200). (1) Affinity assay of antibodies for human CD79b-his (Sino biological): 50 mM N-hydroxysuccinimide (NHS) and 200 mM 1-ethyl-3-(3-dimethylaminopropyl) carbodiimide hydrochloride (EDC) were freshly mixed and activated for 420 s at a flow rate of 10 μL/min. Human CD79b-His antigen was then diluted in 10 mM Acetate (pH 5.0), and after dilution to a concentration of 1 μg/mL, the antigen solution was subjected to coupling and the value was approximately 50 RU. Then 1 M ethanolamine was injected at a flow rate of 10 μL/min for 420 s to block the remaining activation sites. The buffer used in the experiment was HBS-EP+ solution at pH 7.4, and under a high performance mode, the antibodies obtained after 2-fold gradient dilution (0-80 nM) were each injected, according to an ascending order based on concentrations, into the channels 1, 2, 3 and 4 of the chip at a flow rate of 30 μL/min, wherein one cycle was used for determination of one concentration, the binding time was 180 s, and the dissociation time was 600 s. (2) Affinity assay of antibodies for human CD3E & CD3G-biotin (Sino biological) and monkey CD3E & CD3G-biotin (Sino biological): 50 mM NHS and 200 mM EDC were freshly mixed and activated for 420 s at a flow rate of 10 μL/min. Streptavidin (Thermo Fisher scientific) protein was then diluted in 10 mM Acetate (pH 4.5) and after dilution to a concentration of 10 μg/mL, the antigen solution was subjected to coupling and the value was approximately 3000 RU. Then 1 M ethanolamine was injected at a flow rate of 10 μL/min for 420 s to block the remaining activation sites. Human CD3E & CD3G-biotin and monkey CD3E & CD3G-biotin proteins were each immobilized on the chip channels coupled with Streptavidin protein. The antibodies (0-16 nM or 0-40 nM or 0-200 nM) obtained after 2-fold gradient dilution were each injected, according to an ascending order based on concentrations, into the channels 1, 2, 3 and 4 of the chip at a flow rate of 30 μL/min, wherein one cycle was used for determination of one concentration, the binding time was 180 s, and the dissociation time was 300 s.
Background: SPR reads the build-up and loss of mass on a sensor chip optically.

The target of test [3] is T3, human CD79b-his (Sino biological) (human, UniProt P40259 29-159).
T3 construct: Amine-coupled to the Biacore chip (about 50 RU); not shown: His tag
T3 sequence (looked up): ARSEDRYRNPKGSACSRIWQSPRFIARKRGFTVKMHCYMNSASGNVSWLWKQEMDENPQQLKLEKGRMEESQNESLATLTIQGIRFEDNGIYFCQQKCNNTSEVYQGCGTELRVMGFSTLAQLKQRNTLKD
As to the kind of experiment: SPR (Biacore T200), CD79b-His coupled to chip, antibody injected. On the procedure:
as §3

In test [4] the target is T4, human CD3E & CD3G-biotin (Sino biological) (human, UniProt P07766 23-126; P09693 23-116, limits assumed).
T4 construct: also called Human CD3E&G
As to the kind of experiment: SPR (Biacore T200), biotinylated CD3E&CD3G on streptavidin chip, antibody injected. On the procedure:
as §3

For test [5], the target named is T1, CD79b on the surface of B-cell …. As to the kind of experiment: flow cytometry on WSU-DLCL2 cells, goat anti-human IgG PE. The protocol:
as §1, §2

T4 sequence (P07766 23-126 limits assumed, chain 1 of 2): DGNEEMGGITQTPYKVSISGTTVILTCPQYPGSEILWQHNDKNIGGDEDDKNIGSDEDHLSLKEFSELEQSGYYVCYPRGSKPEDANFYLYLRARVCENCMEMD
T4 sequence (P09693 23-116 limits assumed, chain 2 of 2): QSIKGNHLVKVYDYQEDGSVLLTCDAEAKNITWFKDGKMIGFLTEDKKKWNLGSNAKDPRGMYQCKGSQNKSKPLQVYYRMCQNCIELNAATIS

B1: 38D9B3.11/sp34.87 (bispecific antibody, human IgG1, kappa, lambda, L234A L235A)
heavy 1: not shown
light 1: EIVLTQSPATLSLSPGERATLSCKASQSVDHDVDSYMDWYQQKPGQAPRLLIYSASNLESGIPARFSGSGSGTDFTLTISSLEPEDFAVYYCQQINEYPYTFGGGTKVEIKRTVAAPSVFIFPPSDEQLKSGTASVVCLLNNFYPREAKVQWKVDNALQSGNSQESVTEQDSKDSTYSLSSTLTLSKADYEKHKVYACEVTHQGLSSPVTKSFNRGEC
heavy 2: not shown
light 2: QAVVTQEPSLTVSPGGTVTLTCRSSTGAVTTSNYANWVQQKPGQAPRGLIGGTNKRAPGVPARFSGSLLGDKAALTLLGAQPEDEAEYYCALWYSNLWVFGQGTKLTVLGQPKAAPSVTLFPPSSEELQANKATLVCLISDFYPGAVTVAWKADSSPVKAGVETTTPSKQSNNKYAASSYLSLTPEQWKSHRSYSCQVTHEGSTVEKTVAPTECS
notes: 1+1 anti-CD79b x CD3 bispecific, IgG1 Fc with knob-in-hole and L234A/L235A; also called 38D9B3.11 x HzSP34.87
Usually EC50 (read off the curve) stands for the concentration at which the effect is half-maximal. What is called Kd is the constant that tells how readily two partners part at equilibrium. The koff is the first-order rate constant of dissociation. In general, kon refers to the second-order rate constant of association. Turning to B1, the entries for the “EC50 (read off the curve)” value in test [1] and in test [5] were approximately 5 nM and approximately 9 nM, respectively. The results for the equilibrium dissociation constant (Kd) in test [2], in test [3] and in test [4] were 253 nM, 1.66 nM and 119 nM, respectively. In addition, the koff in test [2] was found to be 0.0275 s⁻¹; in test [3], 0.00031 s⁻¹; in test [4] it was 0.0368 s⁻¹. Moreover, the figures for the kon in test [2], in test [3] and in test [4] were 109000 M⁻¹ s⁻¹, 187000 M⁻¹ s⁻¹ and 310000 M⁻¹ s⁻¹, respectively.

B2: 34F1.14/sp34.87 (bispecific antibody, human IgG1, kappa, lambda, L234A L235A)
heavy 1: not shown
light 1: DVVMTQSPLSLPVTLGQPASISCKSSLSLLDSEGKTYLNWFQQRPGQSPRPLISLVSKLDSGVPDRFSGSGSGTDFTLKISRVEAEDVGVYYCWQGTHFPLTFGGGTKVEIKRTVAAPSVFIFPPSDEQLKSGTASVVCLLNNFYPREAKVQWKVDNALQSGNSQESVTEQDSKDSTYSLSSTLTLSKADYEKHKVYACEVTHQGLSSPVTKSFNRGEC
heavy 2: not shown
light 2: QAVVTQEPSLTVSPGGTVTLTCRSSTGAVTTSNYANWVQQKPGQAPRGLIGGTNKRAPGVPARFSGSLLGDKAALTLLGAQPEDEAEYYCALWYSNLWVFGQGTKLTVLGQPKAAPSVTLFPPSSEELQANKATLVCLISDFYPGAVTVAWKADSSPVKAGVETTTPSKQSNNKYAASSYLSLTPEQWKSHRSYSCQVTHEGSTVEKTVAPTECS
notes: also called 34F1.14 x HzSP34.87
For B2, in test [2], the dissociation constant Kd came to 180 nM, the koff was found to be 0.032 s⁻¹ and the kon was 178000 M⁻¹ s⁻¹. In test [3], this molecule had a Kd of 7.03 nM, a koff of 0.00207 s⁻¹ and a kon of 295000 M⁻¹ s⁻¹. In test [4], this molecule yielded a Kd of 92 nM, a koff of 0.0315 s⁻¹ and a kon of 342000 M⁻¹ s⁻¹.

B3: 11G10.9.p1/sp34.87 (bispecific antibody, human IgG1, kappa, lambda, L234A L235A)
heavy 1: not shown
light 1: DIVMTQTPLSLSVTPGQPASISCKSSQSLLDSEGKTYLNWLLQKPGQSPQSLIYLVSKLDSGVPDRFSGSGSGTDFTLKISRVEAEDVGVYYCWQGTHFPLTFGGGTKVEIKRTVAAPSVFIFPPSDEQLKSGTASVVCLLNNFYPREAKVQWKVDNALQSGNSQESVTEQDSKDSTYSLSSTLTLSKADYEKHKVYACEVTHQGLSSPVTKSFNRGEC
heavy 2: not shown
light 2: QAVVTQEPSLTVSPGGTVTLTCRSSTGAVTTSNYANWVQQKPGQAPRGLIGGTNKRAPGVPARFSGSLLGDKAALTLLGAQPEDEAEYYCALWYSNLWVFGQGTKLTVLGQPKAAPSVTLFPPSSEELQANKATLVCLISDFYPGAVTVAWKADSSPVKAGVETTTPSKQSNNKYAASSYLSLTPEQWKSHRSYSCQVTHEGSTVEKTVAPTECS
notes: also called 11G10.9.p1 x HzSP34.87
As to B3, the entries for the “EC50 (read off the curve)” value in test [1] and in test [5] were approximately 20 nM and approximately 30 nM, respectively. Besides, the dissociation constant Kd in test [2] came out at 202 nM; in test [3] it was 4.5 nM; in test [4], 107 nM. Besides, the off-rate constant (koff) in test [2] worked out at 0.0336 s⁻¹; in test [3] it was 0.00208 s⁻¹; in test [4] it was 0.0331 s⁻¹. In addition, the kon in test [2] amounted to 167000 M⁻¹ s⁻¹; in test [3], 461000 M⁻¹ s⁻¹; in test [4], 308000 M⁻¹ s⁻¹.

B4: 34F1.14/sp34.24 (bispecific antibody, human IgG1, kappa, lambda, L234A L235A)
heavy 1: not shown
light 1: DVVMTQSPLSLPVTLGQPASISCKSSLSLLDSEGKTYLNWFQQRPGQSPRPLISLVSKLDSGVPDRFSGSGSGTDFTLKISRVEAEDVGVYYCWQGTHFPLTFGGGTKVEIKRTVAAPSVFIFPPSDEQLKSGTASVVCLLNNFYPREAKVQWKVDNALQSGNSQESVTEQDSKDSTYSLSSTLTLSKADYEKHKVYACEVTHQGLSSPVTKSFNRGEC
heavy 2: not shown
light 2: QAVVTQEPSLTVSPGGTVTLTCRSSTGAVTTSNYANWVQQKPGQAPRGLIGGTNKRAPGVPARFSGSLLGDKAALTLLGAQPEDEAEYYCALWYSNLWVFGQGTKLTVLGQPKAAPSVTLFPPSSEELQANKATLVCLISDFYPGAVTVAWKADSSPVKAGVETTTPSKQSNNKYAASSYLSLTPEQWKSHRSYSCQVTHEGSTVEKTVAPTECS
notes: also called 34F1.14 x HzSP34.24
As to B4, the “EC50 (read off the curve)” value in test [1] is approximately 60 nM. In test [2], this molecule showed a Kd of 8.75 nM, a koff of 0.00593 s⁻¹ and an on-rate (kon) of 678000 M⁻¹ s⁻¹. In addition, in test [3], binding was characterised by a dissociation constant (Kd) of 3.1 nM, the dissociation rate constant (koff) came out at 0.00161 s⁻¹ and the kon is 519000 M⁻¹ s⁻¹. In test [4], this molecule yielded a Kd of 4.99 nM, a koff of 0.00512 s⁻¹ and a kon of 1.03e+06 M⁻¹ s⁻¹.

B5: 38D9B3.11/sp34.24 (bispecific antibody, human IgG1, kappa, lambda, L234A L235A)
heavy 1: not shown
light 1: EIVLTQSPATLSLSPGERATLSCKASQSVDHDVDSYMDWYQQKPGQAPRLLIYSASNLESGIPARFSGSGSGTDFTLTISSLEPEDFAVYYCQQINEYPYTFGGGTKVEIKRTVAAPSVFIFPPSDEQLKSGTASVVCLLNNFYPREAKVQWKVDNALQSGNSQESVTEQDSKDSTYSLSSTLTLSKADYEKHKVYACEVTHQGLSSPVTKSFNRGEC
heavy 2: not shown
light 2: QAVVTQEPSLTVSPGGTVTLTCRSSTGAVTTSNYANWVQQKPGQAPRGLIGGTNKRAPGVPARFSGSLLGDKAALTLLGAQPEDEAEYYCALWYSNLWVFGQGTKLTVLGQPKAAPSVTLFPPSSEELQANKATLVCLISDFYPGAVTVAWKADSSPVKAGVETTTPSKQSNNKYAASSYLSLTPEQWKSHRSYSCQVTHEGSTVEKTVAPTECS
notes: also called 38D9B3.11 x HzSP34.24
On to B5, for which the “EC50 (read off the curve)” value in test [1] was approximately 5 nM; in test [5], approximately 10 nM. Moreover, the Kd in test [2] is 10.9 nM; in test [3], 0.787 nM; in test [4] it was 6.19 nM. Also, the koff is 0.00656 s⁻¹ in test [2], 0.000268 s⁻¹ in test [3] and 0.00565 s⁻¹ in test [4]. The values for the kon in test [2], in test [3] and in test [4] were 603000 M⁻¹ s⁻¹, 341000 M⁻¹ s⁻¹ and 912000 M⁻¹ s⁻¹, respectively.
